This note sets out measurements from publication PMC3510444 (Molecular Cell, 2012).

The target in the assay is T1, LC3A, purified, for fluorescence anisotropy (human, UniProt Q9H492 1-121).
T1 construct: LC3A, human ATG8 ortholog; Construct limits and whether the tag was removed may stand in the Supplemental Experimental Procedures; source: E. coli (pETM30 vectors for biochemical experiments), purified
Put plainly: fluorescence polarisation; fluorescence anisotropy, equilibrium; purified ATG8 orthologs serially diluted and mixed with equal volumes of 100 nM FITC-labeled NDP52 peptides; PheraStar plate reader. As to conditions: both partners purified.

Where no end group is shown, it is not given here.

B1: FITC-labeled NDP52 CLIR peptide (aa 128-141), I133W (peptide)
peptide: ENEEDWLVVTTQGE
modifications: also: FITC label (end not given here)
notes: NDP52, human, CLIR region, 14-mer, Ile133 replaced with Trp; also called CLIR^I133W
B1: binding was put at a Kd of 0.29 µM.

B2: FITC-labeled NDP52 CLIR peptide (aa 128-141), wild type (peptide)
peptide: ENEEDILVVTTQGE
modifications: also: FITC label (end not given here)
notes: NDP52, human, CLIR region, 14-mer; also called CLIR^WT
With B2, binding was put at a Kd of 15.1 µM.

Usually Kd stands for the equilibrium constant for the complex coming apart. Read a high Kd as weaker binding.
